Experimental data taken from patent US12485179B2, “Cholecystokinin B receptor targeting for imaging and therapy” (Purdue Research Foundation, priority 2012, dated 2025).

Tested on: HEK CCK2R tumor xenografts
Assay: In vivo radio-imaging and bio-distribution, HEK CCK2R tumor xenografts
Design: species or system nu/nu mice
Description: In order to test the in vivo specificity of CRL-3 chelated with ^99mTc, HEK CCK2R and CCK2i4svR subcutaneous tumors were produced in nude mice according to known methods. Athymic female nu/nu mice were purchased from Harlan Laboratories and maintained on normal rodent chow and housed in a sterile environment on a standard 12 hour light and dark cycle for the duration of the study. All animal procedures were approved by the Purdue Animal Care and Use Committee in accordance with NIH guidelines.
150 microcurie of CRL-3 ^99mTc was injected intravenously into each mouse. FIGS. 3A-B show an overlay of whole-body radio-images on white light photographs of mice bearing images of HEK CCK2R (a, b) and HEK CCKRi4sv (c, d) tumor xenografts in nu/nu mice two hours after the administration of CRL-3 ^99mTc. Kidneys were shielded with a lead plate. Mice a and c had the radioactive conjugate administered along with 100 fold of free unlabeled targeting ligand. In mice b and d, only the radio-conjugate CRL-3 ^99mTc was administered. Arrows indicate location of the tumor.
Following the above radio-imaging studies, animals were dissected and selected organs/tissues were collected into pre-weighed γ-counter tubes. Radioactivity of weighed tissues and test compounds were counted in a γ-counter. CPM values were decay corrected and results were calculated as % injected dose per gram of wet tissue (% ID/g). FIGS. 4A-B show the bio-distribution of the CRL-3 ^99mTc in mice having HEK CCK2i4svR and HEK CCK2R tumors. Error bars represent the standard deviation (n=5 mice/group).
Since small molecules are often excreted via the kidneys^43, we next elected to determine whether uptake of CRL-3 ^99mTc in the kidneys might be transient. […] By 24 h post tail vein injection, tumor to tissue ratios of CRL-3 ^99mTc in the muscle, heart, skin, blood, liver, and spleen were 90, 83, 30, 61, 4 and 14, respectively (see also Table 3).

[1] = 0.5, 2, 4, 8 hours post tail vein injection

With CC(C)(C)C(=O)CN1C(=O)[C@H](NC(=O)Nc2cccc(C(=O)NCCCCCCCC(=O)N[C@H](CCC(=O)O)C(=O)N[C@H](CCC(=O)NC[C@H](O)[C@@H](O)[C@H](O)[C@H](O)CO)C(=O)N[C@H](CCC(=O)O)C(=O)N[C@H](CCC(=O)NC[C@H](O)[C@@H](O)[C@H](O)[C@H](O)CO)C(=O)NC[C@@H]3[NH][99Tc]45[S]C[C@@H](C(=O)O)[N]4C(=O)[C@H](CC(=O)O)[N]5C3=O)c2)CN(C2CCCCC2)c2ccccc21 (stereo partly shown) [CRL-3 ^99mTc] the “content of the kidneys over time (SPECT-CT)” value [1] was “decreased significantly over time”, the “uptake in the tumor mass over time (SPECT-CT)” value [1] was “relatively stable” and the “accumulation of radio-conjugate, whole-body radio-image” value (150 microcurie i.v., two hours after administration, kidneys shielded) was “accumulated mainly in the receptor expressing tumor with little or no accumulation in other tissues except the kidney”. For the same compound, the “tumor to tissue ratio, blood” value (24 h post tail vein injection) was 61, the “tumor to tissue ratio, heart” value (24 h post tail vein injection) was 83 and the “tumor to tissue ratio, liver” value (24 h post tail vein injection) was 4. The “tumor to tissue ratio, muscle” value (24 h post tail vein injection) was 90, the “tumor to tissue ratio, skin” value (24 h post tail vein injection) was 30 and the “tumor to tissue ratio, spleen” value (24 h post tail vein injection) was 14. For the same compound, the “Uptake of radioactivity, Blood” value (0.5 h post injection) was 5.8 ± 2.7 % ID/g, the “Uptake of radioactivity, Blood” value (2 h post injection) was 1.9 ± 0.97 % ID/g and the “Uptake of radioactivity, Blood” value (4 h post injection) was 1.7 % ID/g. The “Uptake of radioactivity, Blood” value (8 h post injection) was 0.24 % ID/g, the “Uptake of radioactivity, Blood” value (24 h post injection) was 0.10 % ID/g and the “Uptake of radioactivity, Brain” value (0.5 h post injection) was 0.13 % ID/g. For the same compound, the “Uptake of radioactivity, Brain” value (2 h post injection) was 0.051 % ID/g, the “Uptake of radioactivity, Brain” value (4 h post injection) was 0.053 % ID/g and the “Uptake of radioactivity, Brain” value (8 h post injection) was 0.064 % ID/g. For the same compound, the “Uptake of radioactivity, Brain” value (24 h post injection) was 0.0076 % ID/g, the “Uptake of radioactivity, Heart” value (0.5 h post injection) was 2.3 ± 1.5 % ID/g and the “Uptake of radioactivity, Heart” value (2 h post injection) was 0.68 ± 0.47 % ID/g. For the same compound, the “Uptake of radioactivity, Heart” value (4 h post injection) was 0.59 % ID/g, the “Uptake of radioactivity, Heart” value (8 h post injection) was 0.14 % ID/g and the “Uptake of radioactivity, Heart” value (24 h post injection) was 0.076 % ID/g. The “Uptake of radioactivity, Large Intestine” value (0.5 h post injection) was 1.0 ± 0.52 % ID/g, the “Uptake of radioactivity, Large Intestine” value (2 h post injection) was 0.46 ± 0.20 % ID/g and the “Uptake of radioactivity, Large Intestine” value (4 h post injection) was 0.53 % ID/g. For the same compound, the “Uptake of radioactivity, Large Intestine” value (8 h post injection) was 0.24 % ID/g, the “Uptake of radioactivity, Large Intestine” value (24 h post injection) was 0.13 % ID/g and the “Uptake of radioactivity, Left Kidney” value (0.5 h post injection) was 11.2 ± 6.1 % ID/g. For the same compound, the “Uptake of radioactivity, Left Kidney” value (2 h post injection) was 8.4 ± 4.6 % ID/g, the “Uptake of radioactivity, Left Kidney” value (4 h post injection) was 13.4 % ID/g and the “Uptake of radioactivity, Left Kidney” value (8 h post injection) was 6.0 % ID/g. For the same compound, the “Uptake of radioactivity, Left Kidney” value (24 h post injection) was 2.6 % ID/g, the “Uptake of radioactivity, Liver” value (0.5 h post injection) was 6.7 ± 3.6 % ID/g and the “Uptake of radioactivity, Liver” value (2 h post injection) was 2.5 ± 2.4 % ID/g. For the same compound, the “Uptake of radioactivity, Liver” value (4 h post injection) was 4.1 % ID/g, the “Uptake of radioactivity, Liver” value (8 h post injection) was 1.9 % ID/g and the “Uptake of radioactivity, Liver” value (24 h post injection) was 1.4 % ID/g. The “Uptake of radioactivity, Lungs” value (0.5 h post injection) was 3.2 ± 1.7 % ID/g, the “Uptake of radioactivity, Lungs” value (2 h post injection) was 1.2 ± 0.55 % ID/g and the “Uptake of radioactivity, Lungs” value (4 h post injection) was 1.0 % ID/g. For the same compound, the “Uptake of radioactivity, Lungs” value (8 h post injection) was 0.29 % ID/g, the “Uptake of radioactivity, Lungs” value (24 h post injection) was 0.18 % ID/g and the “Uptake of radioactivity, Muscle” value (0.5 h post injection) was 0.8 ± 0.37 % ID/g. For the same compound, the “Uptake of radioactivity, Muscle” value (2 h post injection) was 0.29 % ID/g, the “Uptake of radioactivity, Muscle” value (4 h post injection) was 0.3 % ID/g and the “Uptake of radioactivity, Muscle” value (8 h post injection) was 0.093 % ID/g. The “Uptake of radioactivity, Muscle” value (24 h post injection) was 0.070 % ID/g, the “Uptake of radioactivity, Pancreas” value (0.5 h post injection) was 1.3 ± 0.62 % ID/g and the “Uptake of radioactivity, Pancreas” value (2 h post injection) was 0.69 ± 0.84 % ID/g. The “Uptake of radioactivity, Pancreas” value (4 h post injection) was 0.29 % ID/g, the “Uptake of radioactivity, Pancreas” value (8 h post injection) was 0.10 % ID/g and the “Uptake of radioactivity, Pancreas” value (24 h post injection) was 0.053 % ID/g. The “Uptake of radioactivity, Right Kidney” value (0.5 h post injection) was 11.4 ± 6.3 % ID/g, the “Uptake of radioactivity, Right Kidney” value (2 h post injection) was 7.6 ± 4.4 % ID/g and the “Uptake of radioactivity, Right Kidney” value (4 h post injection) was 12.8 % ID/g. For the same compound, the “Uptake of radioactivity, Right Kidney” value (8 h post injection) was 5.7 % ID/g, the “Uptake of radioactivity, Right Kidney” value (24 h post injection) was 2.6 % ID/g and the “Uptake of radioactivity, Skin” value (0.5 h post injection) was 2.3 ± 1.2 % ID/g. For the same compound, the “Uptake of radioactivity, Skin” value (2 h post injection) was 1.0 ± 0.41 % ID/g, the “Uptake of radioactivity, Skin” value (4 h post injection) was 1.1 % ID/g and the “Uptake of radioactivity, Skin” value (8 h post injection) was 0.42 % ID/g. For the same compound, the “Uptake of radioactivity, Skin” value (24 h post injection) was 0.21 % ID/g, the “Uptake of radioactivity, Small Intestine” value (0.5 h post injection) was 1.2 ± 0.63 % ID/g and the “Uptake of radioactivity, Small Intestine” value (2 h post injection) was 0.52 ± 0.28 % ID/g. For the same compound, the “Uptake of radioactivity, Small Intestine” value (4 h post injection) was 0.52 % ID/g, the “Uptake of radioactivity, Small Intestine” value (8 h post injection) was 0.19 % ID/g and the “Uptake of radioactivity, Small Intestine” value (24 h post injection) was 0.13 % ID/g. The “Uptake of radioactivity, Spleen” value (0.5 h post injection) was 2.1 ± 1.2 % ID/g, the “Uptake of radioactivity, Spleen” value (2 h post injection) was 0.69 ± 0.70 % ID/g and the “Uptake of radioactivity, Spleen” value (4 h post injection) was 1.4 % ID/g. For the same compound, the “Uptake of radioactivity, Spleen” value (8 h post injection) was 0.65 % ID/g, the “Uptake of radioactivity, Spleen” value (24 h post injection) was 0.45 % ID/g and the “Uptake of radioactivity, Stomach” value (0.5 h post injection) was 1.2 ± 0.61 % ID/g. The “Uptake of radioactivity, Stomach” value (2 h post injection) was 0.58 ± 0.32 % ID/g, the “Uptake of radioactivity, Stomach” value (4 h post injection) was 0.56 % ID/g and the “Uptake of radioactivity, Stomach” value (8 h post injection) was 0.24 % ID/g. The “Uptake of radioactivity, Stomach” value (24 h post injection) was 0.15 % ID/g, the “Uptake of radioactivity, Tumor” value (0.5 h post injection) was 7.4 ± 4.6 % ID/g and the “Uptake of radioactivity, Tumor” value (2 h post injection) was 8.1 ± 5.1 % ID/g. The “Uptake of radioactivity, Tumor” value (4 h post injection) was 12.0 % ID/g, the “Uptake of radioactivity, Tumor” value (8 h post injection) was 8.5 % ID/g and the “Uptake of radioactivity, Tumor” value (24 h post injection) was 6.3 ±3.7 % ID/g. The “bio-distribution of radiotracer in organs/tissues” value (after radio-imaging, n=5 mice/group) was “only the tumor and kidneys show excessive accumulation of radiotracer”.
